From patent publication US20180326086A1 (UNIVERSITY OF BRITISH COLUMBIA, published 2018)

How the values were obtained:
Assay in all cases: SPR direct binding, antigen immobilized, hybridoma supernatant
[1] = biological target: T1, cyclo(CGHDSGG)-conjugated-BSA (SEQ ID NO: 2) (bovine, UniProt P02769 25-607, head-to-tail cyclized (amide bond between N-terminus and C-terminus); Cys conjugated to BSA through SMCC)
T1 construct: HDSG is A-beta residues 6-9; C, G and GG are linker residues; also called Cyclic-Peptide; cyclic peptide
Procedure: (§1) SPR Analysis All SPR measurements were performed using a Molecular Affinity Screening System (MASS-1) (Sierra Sensors GmbH, Hamburg, Germany), an analytical biosensor that employs high intensity laser light and high speed optical scanning to monitor binding interactions in real time. The primary screening of tissue culture supernatants was performed using an SPR direct binding assay, whereby BSA-conjugated peptides, A-Beta42 Monomer and A-beta42 Oligomer are covalently immobilized on individual flow cells of a High Amine Capacity (HAC) sensorchip (Sierra Sensors GmbH, Hamburg, Germany) and antibodies flowed over the surface. Protein G purified mAbs were analyzed in a secondary screen using an SPR indirect (capture) binding assay, whereby the antibodies were captured on a protein A-derivatized sensorchip (XanTec Bioanalytics GmbH, Duesseldorf, Germany) and A-Beta40 Monomer, A-beta42 Oligomer, soluble brain extracts and cerebrospinal fluid flowed over the surface. The specificity of the antibodies was verified in an SPR direct binding assay by covalently immobilizing A-Beta42 Monomer and A-beta42 Oligomer on individual flow cells of a HAC sensorchip and flowing purified mAbs.
(§2) Clones were retested for their ability to bind cyclic peptide, linear peptide, A-beta 1-42 monomer and A-beta 1-42 oligomers prepared as described above. Binding assays were performed using SPR as described above (Direct binding assays).

[2] = biological target: T2, A-beta42 monomer (human)
T2 construct: also called Aβ 42 Monomer; A-beta 1-42 monomer
Procedure: as §1, §2

[3] = biological target: T3, A-beta42 oligomer (human)
T3 construct: also called Aβ 42 Oligomer; A-beta 1-42 oligomers
Procedure: as §1, §2

T1 sequence (P02769 25-607 limits assumed): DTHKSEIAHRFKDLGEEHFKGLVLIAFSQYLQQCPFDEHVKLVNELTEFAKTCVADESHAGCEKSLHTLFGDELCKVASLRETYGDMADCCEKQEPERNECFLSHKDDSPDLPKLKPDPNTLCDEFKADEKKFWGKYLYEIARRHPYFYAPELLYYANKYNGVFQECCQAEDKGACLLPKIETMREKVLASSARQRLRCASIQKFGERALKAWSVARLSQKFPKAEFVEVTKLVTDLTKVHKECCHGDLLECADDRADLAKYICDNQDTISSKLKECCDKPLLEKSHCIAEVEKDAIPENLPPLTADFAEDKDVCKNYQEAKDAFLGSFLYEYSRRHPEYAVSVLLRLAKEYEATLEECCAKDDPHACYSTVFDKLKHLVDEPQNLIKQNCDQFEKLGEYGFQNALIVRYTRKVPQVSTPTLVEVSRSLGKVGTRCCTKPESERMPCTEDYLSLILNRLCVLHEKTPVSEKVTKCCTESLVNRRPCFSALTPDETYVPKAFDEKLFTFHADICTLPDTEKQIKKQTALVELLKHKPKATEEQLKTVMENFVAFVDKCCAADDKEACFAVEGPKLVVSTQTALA
T2 sequence (peptide, as listed by the source): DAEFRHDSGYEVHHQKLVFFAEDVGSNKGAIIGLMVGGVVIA
T3 sequence (peptide, as listed by the source): as above

SPR binding response (RU) [1]: 136 RU | SPR binding response (RU) [2]: 56.5 RU | SPR binding response (RU) [3]: 109 RU
B1: 303-25-1B4 (antibody, V domains shown)
VH: QVQLQQPGAELVRPGASVKLSCKASGYTFTSYWMNWVKQRPGQGLEWIGMIDPSDSQTHYNQMFKDKATLTVDKSSSTAYLQLSSLTSEDSAVYYCSRGGYWGQGTTLTVSS
VL: DIQMTQSPSSLSASLGGKVTITCKASQDINNYIAWYQHKPGKGPRQLIYYTSTLQPGIPSRFSGSGSGRDYSFTISDLEPEDIATYYCLQYDNLWTFGGGTKLEIK
notes: Mouse monoclonal raised against cyclo(CGHDSGG)-KLH; also called clone 25
